# Target: His-SUMO-FGF23 (N-terminal domain of human FGF23, wild type) (human) (UniProt Q9GZV9)
# Assay: ELISA
# His-SUMO-FGF23 (N-terminal domain of human FGF23, wild type) (human), sequence (Q9GZV9 25-204): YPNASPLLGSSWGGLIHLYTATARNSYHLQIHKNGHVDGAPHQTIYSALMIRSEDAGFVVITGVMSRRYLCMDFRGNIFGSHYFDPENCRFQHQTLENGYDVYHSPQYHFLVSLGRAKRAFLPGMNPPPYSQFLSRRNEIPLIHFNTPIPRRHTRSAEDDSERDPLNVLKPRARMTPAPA
row,Substance,Kd [nM]
1,Burosumab VL:S52D,0.7
2,Burosumab VL:S67Y,0.73
3,Burosumab VL:T69D,0.86
